Assay results as given in publication PMC11676285, “Enhancement of the Thermostability of Microbacterium Esterase by Combinatorial Rational Design” (Molecules, 2024).

B1: EstSIT01 (Microbacterium aurantiacum) (protein)
chain: MTLFDGITSRIVDTDRLTVNILERAADDPQTPPDRTVVFVHGNVSSALFWQEIMQDLPSDLRAIAVDLRGFGGSEHAPVDATRGVRDFSDDLHATLEALDIPVAHLVGWSMGGGVVMQYALDHPVLSLTLQSPVSPYGFGGTRRDGSRLTDDDAGCGGGGANPDFIQRLIDHDTSDDAQTSPRSVFRAGYVASDYTTDHEDVWVESMLTTSTADGNYPGDAVPSDNWPGFAAGRHGVLNTMAPQYFDVSGIVDLAEKPPILWIHGTADAIVSDASFYDLNYLGQLGIVPGWPGEDVAPAQEMVSQTRDVLGRYAAGGGTVTEVAVEGAGHSAHLERPAVFRHALLEIIGYVGAAADPAPPTEAIIIRSAD
B2: EstSIT01 (Microbacterium aurantiacum; E301P) (protein)
chain: MTLFDGITSRIVDTDRLTVNILERAADDPQTPPDRTVVFVHGNVSSALFWQEIMQDLPSDLRAIAVDLRGFGGSEHAPVDATRGVRDFSDDLHATLEALDIPVAHLVGWSMGGGVVMQYALDHPVLSLTLQSPVSPYGFGGTRRDGSRLTDDDAGCGGGGANPDFIQRLIDHDTSDDAQTSPRSVFRAGYVASDYTTDHEDVWVESMLTTSTADGNYPGDAVPSDNWPGFAAGRHGVLNTMAPQYFDVSGIVDLAEKPPILWIHGTADAIVSDASFYDLNYLGQLGIVPGWPGEDVAPAQPMVSQTRDVLGRYAAGGGTVTEVAVEGAGHSAHLERPAVFRHALLEIIGYVGAAADPAPPTEAIIIRSAD
B3: EstSIT01 (Microbacterium aurantiacum; E301P/G215A) (protein)
chain: MTLFDGITSRIVDTDRLTVNILERAADDPQTPPDRTVVFVHGNVSSALFWQEIMQDLPSDLRAIAVDLRGFGGSEHAPVDATRGVRDFSDDLHATLEALDIPVAHLVGWSMGGGVVMQYALDHPVLSLTLQSPVSPYGFGGTRRDGSRLTDDDAGCGGGGANPDFIQRLIDHDTSDDAQTSPRSVFRAGYVASDYTTDHEDVWVESMLTTSTADANYPGDAVPSDNWPGFAAGRHGVLNTMAPQYFDVSGIVDLAEKPPILWIHGTADAIVSDASFYDLNYLGQLGIVPGWPGEDVAPAQPMVSQTRDVLGRYAAGGGTVTEVAVEGAGHSAHLERPAVFRHALLEIIGYVGAAADPAPPTEAIIIRSAD
B4: EstSIT01 (Microbacterium aurantiacum; E301P/G215A/G293A) (protein)
chain: MTLFDGITSRIVDTDRLTVNILERAADDPQTPPDRTVVFVHGNVSSALFWQEIMQDLPSDLRAIAVDLRGFGGSEHAPVDATRGVRDFSDDLHATLEALDIPVAHLVGWSMGGGVVMQYALDHPVLSLTLQSPVSPYGFGGTRRDGSRLTDDDAGCGGGGANPDFIQRLIDHDTSDDAQTSPRSVFRAGYVASDYTTDHEDVWVESMLTTSTADANYPGDAVPSDNWPGFAAGRHGVLNTMAPQYFDVSGIVDLAEKPPILWIHGTADAIVSDASFYDLNYLGQLGIVPGWPAEDVAPAQPMVSQTRDVLGRYAAGGGTVTEVAVEGAGHSAHLERPAVFRHALLEIIGYVGAAADPAPPTEAIIIRSAD

These proteins were tested on COC(=O)[C@@H]1[C@H](C(=O)OC)N(Cc2ccccc2)C(=O)N1Cc1ccccc1 (assay: HPLC of biotin monomethyl ester, Michaelis-Menten fit). Details: pH 8.0, 0.05 M PBS, 30 °C, substrate 0.1 to 10 mM.
Type: biochemical, Microbacterium aurantiacum
From the text: HPLC of biotin monomethyl ester, Michaelis-Menten fit on […]01

Row | Protein | Km [µM] | kcat [s⁻¹] | kcat/Km [M⁻¹ s⁻¹]
1 | B1 | 150 ± 20 | 7.8 ± 0.31 | 51900
2 | B2 | 220 ± 30 | 5.1 ± 0.28 | 23200
3 | B3 | 210 ± 40 | 5.4 ± 0.37 | 25600
4 | B4 | 180 ± 30 | 6.3 ± 0.39 | 34900
